Assay results published in patent publication US20080166806A1, “Attenuated Effector Ligand” (priority 2007, published 2008).

Tested on: Burkitt lymphoma cells
Assay: Dose response of FasL ligands on Burkitt lymphoma cells
Assay type: cell-based
Conditions: dose response over 1 μM to 1 nM, 96 well plate
Method: Dose response over a range of 1 μM to 1 nM is determined for each of the ligands.

Row | Molecule | rank order of effectiveness
1 | FasL (protein, UniProt P48023 130-281, looked up, wild-type FasL ligand used as comparator) Tumor necrosis factor ligand …: QIGHPSPPPEKKELRKVAHLTGKSNSRSMPLEWEDTYGIVLLSGVKYKKGGLVINETGLYFVYSKVYFRGQSCNNLPLSHKVYMRNSKYPQDLVMMEGKMMSYCTTGQMWARSSYLGAVFNLTSADHLYVNVSELSLVNFEESQTFFGLYKL | rank order of effectiveness is wild-type, conjugate and mutated FasL
2 | FasL (P206R) (protein, UniProt P48023 130-281, looked up, variant P206R) Tumor necrosis factor ligand …: QIGHPSPPPEKKELRKVAHLTGKSNSRSMPLEWEDTYGIVLLSGVKYKKGGLVINETGLYFVYSKVYFRGQSCNNLRLSHKVYMRNSKYPQDLVMMEGKMMSYCTTGQMWARSSYLGAVFNLTSADHLYVNVSELSLVNFEESQTFFGLYKL | rank order of effectiveness is wild-type, conjugate and mutated FasL
3 | conjugate: mutated FasL (P206R) conjugated to mouse monoclonal anti-CD20 antibody with SMCC (conjugate, UniProt P48023 130-281, looked up, variant P206R, conjugated via SMCC to mouse anti-CD20 antibody) Tumor necrosis factor ligand …: QIGHPSPPPEKKELRKVAHLTGKSNSRSMPLEWEDTYGIVLLSGVKYKKGGLVINETGLYFVYSKVYFRGQSCNNLRLSHKVYMRNSKYPQDLVMMEGKMMSYCTTGQMWARSSYLGAVFNLTSADHLYVNVSELSLVNFEESQTFFGLYKL | rank order of effectiveness is wild-type, conjugate and mutated FasL
